Data: paper PMC2716403 (Journal of molecular biology, 2009)
Read-outs that look alike come from different tables or passages of the source.

What was measured:
Assay in all cases: ITC
[1] = target: RanGDP (wild-type Ran, GDP-bound) (Rattus norvegicus, UniProt P62828 1-216)
[2] = target: T1, RanGDP (wild-type Ran, GDP-bound) (Rattus norvegicus, UniProt P62828 1-216); remark: listed apart in the source
[3] = target: T1, RanGDP (wild-type Ran, GDP-bound); remark: listed apart in the source

| Binder | Kd [2] | Kd [3] | further results |
| --- | --- | --- | --- |
| GPLGSGSWQCEVCLVQNKADSTKCIACESAKPGTKSEFKGFGT (domain or fragment) [Nup153-ZnF4D8Q] | – | – | Kd [1]: 3 µM |
| AGSSWQCDTCLLQNKVTDNKCIACQAAKL (domain or fragment) [Nup153-ZnF1] | 6 µM | – | – |
| Nup358-ZnF12 (domain or fragment) KEGSWWHCNSCSLKNASTAKKCVSCQNLNPSNKELVGPPLAETVFTPKTSPENVQDRFALVTPKKEGHWDCSICLVRNEPTVSRCIACQNTKSA | – | 15 µM | – |
| GTWDCDTCLVQNKPEAVKCVACETPKPG (domain or fragment) [Nup153-ZnF2] | – | 49 µM | – |
| GSWDCEVCLVQNKADSTKCIACESAKPGTKSEFKGFGT (domain or fragment) [Nup153-ZnF4] | – | 47 µM | – |
| VGSWECPVCCVSNKAEDSRCVSCTSEKP (domain or fragment) [Nup153-ZnF3] | 7 µM | – | – |
